# According to doi:10.1101/2022.03.25.485784 (bioRxiv, 2022):
# B1: dtSARM1, the full-length SARM1 with the N-terminal 27-aa segment replaced by a twin-Strep and Flag-tag (enzyme)
# chain: LAVPGPDGGGGTGPWWAAGGRGPREVSPGAGTEVQDALERALPELQQALSALKQAGGARAVGAGLAEVFQLVEEAWLLPAVGREVAQGLCDAIRLDGGLDLLLRLLQAPELETRVQAARLLEQILVAENRDRVARIGLGVILNLAKEREPVELARSVAGILEHMFKHSEETCQRLVAAGGLDAVLYWCRRTDPALLRHCALALGNCALHGGQAVQRRMVEKRAAEWLFPLAFSKEDELLRLHACLAVAVLATNKEVEREVERSGTLALVEPLVASLDPGRFARCLVDASDTSQGRGPDDLQRLVPLLDSNRLEAQCIGAFYLCAEAAIKSLQGKTKVFSDIGAIQSLKRLVSYSTNGTKSALAKRALRLLGEEVPRPILPSVPSWKEAEVQTWLQQIGFSKYCESFREQQVDGDLLLRLTEEELQTDLGMKSGITRKRFFRELTELKTFANYSTCDRSNLADWLGSLDPRFRQYTYGLVSCGLDRSLLHRVSEQQLLEDCGIHLGVHRARILTAAREMLHSPLPCTGGKPSGDTPDVFISYRRNSGSQLASLLKVHLQLHGFSVFIDVEKLEAGKFEDKLIQSVMGARNFVLVLSPGALDKCMQDHDCKDWVHKEIVTALSCGKNIVPIIDGFEWPEPQVLPEDMQAVLTFNGIKWSHEYQEATIEKIIRFLQGRSSRDSSAGSDTSLEGAAPMGPT
# Target: the molecule itself
# Experiment: cryo-EM structure
protein,measurement,value
B1,stoichiometry N,8
